Source: patent publication US20220380473A1, “ANTI-GAL3 ANTIBODIES AND USES THEREOF” (TrueBinding, Inc., priority 2019, published 2022)

Legend:
Galectin-3 = Galectin-3 (Homo sapiens, UniProt P17931); assay: SPR (BiacoreT200) binding affinity; conditions: 25° C., read-out: hGal-3 KD
Method: GAL3-binding antibodies were evaluated for their binding affinity by SPR. Kinetics experiments were performed on BiacoreT200 at 25° C. in high performance mode. Ligand proteins, purified antibodies were captured onto a CM5 chip coupled with anti-human Fc or anti-mouse Fc antibody, three antibodies at a time onto flow cell #2, 3, and 4, respectively, while flow cell #1 was used as reference. The analyte Galectin-3 in HBS-EP buffer was injected over all four flow cells at concentrations of 100, 50, 25, 12.5, 6.25, 3.125 and 0 nM at a flow rate of 30 μL/min. The complex was allowed to associate and dissociate for 240 and 300 seconds, respectively. The surfaces were regenerated with a 30 second injection of 10 mM Glycine pH 1.7 (flow rate 30 μL/min). The data were fit to a simple 1:1 interaction model using the global data analysis option available within BiacoreT200 Evaluation software V2.0. The affinity of Gal3 monoclonal antibodies was confirmed to be […] 30 nM for all antibodies studied (Table 24.1). Antibodies with affinity less than 2E-7 were selected for further characterization.

[1] = system: human dendritic cells (DC), M1 and M2 macrophage cells; assay: Flow cytometry staining of human DC, M1 and M2 macrophages; type: cell-based; conditions: 10 μg/ml
Method: First Human CD14 monocytes were isolated from peripheral blood mononuclear cells (PBMC) with a CD14 cell positive selection kit (Miltenyi, Auburn, Calif.) and differentiated into dendritic cells (DC), or into M1 macrophages, or into M2 macrophages in the presence of GM-CSF plus IL-4, or GM-CSF, or M-CSF (Rocky Hill, N.J.), respectively. Then flow cytometry analysis was performed to detect Gal3 expression on human dendritic cells (DC), M1 and M2 macrophage cells. In details, 100,000 DC, M1 or M2 cells were incubated with 100 μl 10% FBS HBSS solution that contains with control mIgG-biotin (BioLegend) or IMT001-biotin at 10 μg/ml on ice for 20 minutes. Then cells were washed and incubated with PE-streptavidin (BioLegend) at 1:1000 on ice for 20 min. After spinning, live/dead cells were stained with Violet dead cell stain kit (Life Technologies). Stained cells were subjected to flow analysis.

[2] = biological target: T1, interaction of Gal3 and TIM-3 (Homo sapiens, UniProt P17931); assay: Gal3-TIM-3 interaction blockade ELISA (Example 13); type: binding; conditions: antibody at 20 ug/ml
T1 construct: full-length human Galectin-3 protein (Acro Biosystems, GA3-H5129); linker-spaced 6-histidine tag; purchased Acro Biosystems GA3-H5129 (Gal3); TM3-H5229 (TIM-3)
Method: To identify Gal3-targeted antibodies with the ability to block the interaction of Gal3 and TIM-3, purified Gal3 and TIM-3 proteins were incubated in the presence (or absence) of various Gal3-targeted or control antibodies, or without antibody, and protein interaction was evaluated by ELISA.
Human Gal3 protein (Acro Biosystems, GA3-H5129) was diluted in phosphate buffered saline (PBS) (Corning) to a concentration of 0.5 μg/ml and 100 ul of the diluted hGal3 was added to each well of a 96-well ELISA plate (Thermo Fisher, 44-2404-21). After incubating the plate at 4° C. overnight, the plate was washed three times with 300 μl of PBS with 0.05% TWEEN (VWR) (PBST) per well. The plate was then blocked for an hour with 200 μl of 2% bovine serum albumin (BSA) (Sigma) in PBST per well at room temperature with gentle rocking. […]
Afterwards, 50 ul of 1 ug/ml of human TIM-3 extracellular domain protein (Acro Biosystems, TM3-H5229) in 2% BSA in PBST was added to the wells. […] The plate was read using a plate reader (Molecular Devices) at absorbance of 450 nm. Percent blockade of Gal3-TIM-3 interaction was calculated as the fraction of signal obtained in the absence of antibody with the background signal subtracted.

Galectin-3, sequence (P17931 whole entry): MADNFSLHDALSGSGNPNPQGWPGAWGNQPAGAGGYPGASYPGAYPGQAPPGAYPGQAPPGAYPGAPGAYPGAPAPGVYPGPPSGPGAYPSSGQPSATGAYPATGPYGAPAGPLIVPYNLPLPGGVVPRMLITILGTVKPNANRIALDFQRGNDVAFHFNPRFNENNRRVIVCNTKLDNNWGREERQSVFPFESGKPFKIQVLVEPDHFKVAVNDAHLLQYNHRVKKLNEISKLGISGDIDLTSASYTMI
T1 sequence (P17931 2-250 limits assumed): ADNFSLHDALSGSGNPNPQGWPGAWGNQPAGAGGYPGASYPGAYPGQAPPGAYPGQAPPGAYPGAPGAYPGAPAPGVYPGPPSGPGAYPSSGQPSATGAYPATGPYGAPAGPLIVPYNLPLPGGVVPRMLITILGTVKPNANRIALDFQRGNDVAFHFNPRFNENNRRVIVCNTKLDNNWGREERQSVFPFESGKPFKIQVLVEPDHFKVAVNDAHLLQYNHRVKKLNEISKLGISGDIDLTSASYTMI

Kd (Galectin-3): 1.67 nM | Gal3-TIM-3 binding, % of unblocked control (no antibody) [2]: 7%
B1: IMT001: anti-Gal3 monoclonal antibody (Immutics); printed as mIMT001 (IMT001), murine (antibody, V domains shown)
VH: QIQLVQSGPELKKPGETVKISCKASGYTFTNYGMNWVKQAPGKGLKWMGWINTNTGEPTYVEEFKGRFAFSLETSASTAYLQINNLKNEDTATYFCAPYDNFFAYWGQGTLVTVSA
VL: DIVITQDELSNPVTSGESVSISCRSSKSLLYKDGKTYLNWFLQRPGQSPQLLIYLMSTHASGVSDRFSGSGSGTDFTLEISRVKAEDVGVYYCQQLVDYPLTFGAGTKLELK
staining of dendritic cells and M1 macrophages [1]: could not be stained | mean fluorescence intensity (MFI) of stained M2 cells vs isotype control ([1]; human M2 macrophages): much higher
